Target: T1, human CCR5 chemokine receptor (Homo sapiens, UniProt P51681)
T1 construct: host or cells: Chinese Hamster Ovary (CHO) cells; membranes prepared from the cell pellet
Test: CC-Chemokine Receptor-5 Binding by Scintillation Proximity Assay (CCR5 SPA), displacement of [125I]MIP1α
Conditions: standard compound, 14-point concentration-response curve in triplicate, starting concentration 1 μM
Protocol: CC-Chemokine Receptor-5 Binding by Scintillation Proximity Assay (CCR5 SPA) Scintillation Proximity Assay for the Human CC-Chemokine Receptor, CCR-5
This protocol describes a high-throughput screen using SPA binding to identify compounds that inhibit binding of ^125-MIP1α to the human CCR5 chemokine receptor.
Human CCR5 receptors were expressed in Chinese Hamster Ovary (CHO) cells, registration # 12025. Cells were grown in suspension and a 50 to 80 ml CCR5 cell pellet was prepared. […]
The saturation curve binding experiment is performed by adding varying amounts of [^125I]MIP1α (0-8.5 nM to membranes and beads in concentrations chosen from the optimal protein/bead ratio. The data is analyzed using a non-linear curve-fitting program. The Kd and Bmax are derived from the curve. […]

T1 sequence (P51681 whole entry): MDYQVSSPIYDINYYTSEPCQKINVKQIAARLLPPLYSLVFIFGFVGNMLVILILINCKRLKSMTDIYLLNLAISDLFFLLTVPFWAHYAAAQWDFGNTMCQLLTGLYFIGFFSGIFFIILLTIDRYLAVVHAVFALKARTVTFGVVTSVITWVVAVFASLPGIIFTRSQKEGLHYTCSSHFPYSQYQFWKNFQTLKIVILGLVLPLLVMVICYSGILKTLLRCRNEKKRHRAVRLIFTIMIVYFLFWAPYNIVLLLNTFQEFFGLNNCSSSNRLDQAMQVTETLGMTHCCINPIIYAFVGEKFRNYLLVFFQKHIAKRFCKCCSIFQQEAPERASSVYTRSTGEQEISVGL

average historical pKi: 7.6
Substance: MIP1α: natural chemokine ligand of CCR5; standard compound of the CCR5 SPA binding assay
